A value given as a limit tells only on which side of the number the result lay.

Results on 1 molecule are retold here after patent US20200199225A1.

The assay deals with BCRs exhibiting the target structure on primary B-cells from the blood of leukemia patients. Briefly: cell-based or functional assay.

B1: AVA-mAb01 (antibody, V domains shown)
VH: QVQLQQSGPGLVQPSQSLSITCTVSGFSLTSYGIHWVRQSPGKGLEWLGVIWRGGGTDSNAAFMSRLSITKDNSKSQVFFKMNSLQADDTAIYYCARSRYDEEESMNYWGQGTSVTVSS
VL: QIVLTQSPASLSASVGETVTITCRASGNIHSYLAWYQQKQGKSPQLLVYNAKTLADGVPSRFSGSGSGTQYSLKINSLQPEDFGSYYCQHFWNTPPTFGAGTKLELK
Molecule B1 displayed a lymphocyte count in the flow-through after double purification over LS columns with antibody-conjugated MACS MicroBeads (start: 80,000 lymphocytes/µl) (lymphocytes/µl) of under 5000.
